Source: US20130171217A1, “ENZYMATIC PERACID GENERATION FOR USE IN SKIN CARE PRODUCTS” (E I DU PONT DE NEMOURS AND COMPANY, priority 2010, published 2013)

Experiments:
[1] = Perhydrolase activity remaining bound to hair, ABTS assay; assay type: binding, human
Method: Ten mg of human hair was submerged in 2 mL of a binding solution containing 50 μg/mL of the Thermotoga maritima perhydrolase targeted to hair via the hair binding peptide HC263 (C277S-HC263; SEQ ID NO: 288; also referred to herein as “HC1121”) in 50 mM pH 7.2 potassium phosphate buffer containing 5% of the test surfactant. The test surfactants were two nonionic surfactants: TWEEN®-20 (Sigma, St Louis, Mo.), and TRITON®-X 100 (Aldrich, St Louis, Mo.), and two ionic surfactants: CHEMBETAINE™ CAD (Cocamidopropyl betaine; Lubrizol, Wickliffe, Ohio) and RHODAPEX® ES-2K (sodium laurel ether sulfate; Rhodia Novecare, Cranbury, N.J.).
Hair was incubated in the binding solution at room temperature (˜22° C.) with gentle agitation for 30 minutes, at which time the solution was removed by aspiration and the hair rinsed with 1% TWEEN®-20 in 50 mM pH 7.2 potassium phosphate buffer. The hair was removed from the tube, blotted dry with paper towel, and transferred to a new set of tubes. The hair was rinsed once with 1% TWEEN®-20 in 50 mM pH 7.2 potassium phosphate buffer and then rinsed three times with 50 mM pH 7.2 potassium phosphate buffer. Perhydrolase activity remaining bound to the hair was determined by the ABTS assay.
(§1) The ABTS assay was performed as follows: hair samples treated as described above were transferred to new 2-mL microcentrifuge tubes (Eppendorf Protein LoBind; Eppendorf North America, Hauppauge, N.Y.) To each tube was added 480 μL of PAH buffer (50 mM potassium phosphate, pH 7.2), 14 μL of 39% hydrogen peroxide (Sigma 3410), and 6 μL triacetin (Sigma-Aldrich W200700). The perhydrolase reaction was allowed to proceed for 10 minutes at room temperature (˜22-25° C.). The reaction was stopped by diluting aliquots 10×, 100× and 1000× with 10 mM phosphoric acid. For detection 50 μL of 1 M acetic acid, 50 μL of 40 mg/mL potassium iodide, and 50 μL of 4 mM ABTS (2,2′-azino-bis(3-ethylbenzthiazoline-6-sulphonic acid; Sigma, St Louis, Mo.) were added to 50 μL of the above dilutions. Color was allowed to develop for 10 minutes and read in a spectrophotometer at 405 nm. Values from no-enzyme controls were subtracted to yield values attributable only to enzyme activity. A standard curve of OD 405 nm vs PAA concentration in ppm yielded a conversion factor of 8.75, such that an OD 405 nm of 1.0 corresponded to approximately 8.75 ppm PAA. This value was then multiplied by the appropriate dilution to arrive at the PAA concentration in the perhydrolase reaction.
The Thermotoga maritima perhydrolase targeted to hair via the hair binding peptide HC263 (C277S-HC263; SEQ ID NO: 288) was diluted to 50 μg/mL in a solution of 5% PEG-80 sorbitan laurate in 100 mM citrate-phosphate buffer adjusted to pH 4.9, pH 5.5, pH 6.0, or pH 7.0. Ten mg of human hair was added to 2 mL of the above formulations and incubated with gentle agitation for 5 minutes at room temperature to allow enzyme binding to hair. A no-enzyme control sample was included with each pH. After binding, the binding solution was removed by aspiration and the hair was washed with 2 mL of 1% TWEEN®-20 in 50 mM pH 7.2 potassium phosphate buffer. The hair was removed from the tube, blotted dry with paper towel, and transferred to a new set of tubes. The hair was rinsed once with 1% TWEEN®-20 in 50 mM pH 7.2 potassium phosphate buffer and then rinsed three time with 50 mM pH 7.2 potassium phosphate buffer. Perhydrolase activity remaining bound to the hair was determined by the ABTS assay. The results are given as ppm PAA produced at 10 minutes (after subtraction of the no-enzyme control values)
The Thermotoga maritima perhydrolase targeted to hair via the hair binding peptide HC263 (C277S-HC263; SEQ ID NO: 288) was diluted to 50 μg/mL in a solution of 5% PEG-80 sorbitan laurate in 100 mM citrate-phosphate buffer adjusted to pH 6.0. […]

[2] = Perhydrolase activity of targeted hydrolases, ABTS assay; assay type: biochemical
Method: as §1, with “([…]),” for “(50 mM potassium phosphate, pH 7.2),”
The perhydrolase activity of the enzymes targeted to hair with a variety of targeting domains produced as described in Example 32 was measured with the ABTS assay.

[3] = 50 μg/mL, pH 6.0, binding 1 min, at 10 minutes

B1: C277S-HC263: C277S variant of Thermotoga maritima perhydrolase fused via a flexible linker to hair-binding domain HC263 (protein)
chain: MAFFDLPLEELKKYRPERYEEKDFDEFWEETLAESEKFPLDPVFERMESHLKTVEAYDVTFSGYRGQRIKGWLLVPKLEEEKLPCVVQYIGYNGGRGFPHDWLFWPSMGYICFVMDTRGQGSGWLKGDTPDYPEGPVDPQYPGFMTRGILDPRTYYYRRVFTDAVRAVEAAASFPQVDQERIVIAGGSQGGGIALAVSALSKKAKALLCDVPFLCHFRRAVQLVDTHPYAEITNFLKTHRDKEEIVFRTLSYFDGVNFAARAKIPALFSVGLMDNISPPSTVFAAYNYYAGPKEIRIYPYNNHEGGGSFQAVEQVKFLKKLFEKGGPGSGGAGSPGSAGGPGSPSAQSQLPDKHSGLHERAPQRYGPEPEPEPEPIPEPPKEAPVVIEKPKPKPKPKPKPPAHDHKNQKETHQRHAAGSGGGGSPHHHHHH
Question: For B1, which “Perhydrolase Activity Retained on Hair, ppm PAA” value (shortened to “Perhydrolase Activity Retained”) ([1]; 50 μg/mL enzyme bound 30 min in 5% CHEMBETAINE™ CAD) is on record?
Answer: 455 ppm

Question: And the “Perhydrolase Activity Retained” value ([1]; 50 μg/mL enzyme bound 30 min in 5% RHODAPEX® ES-2K)?
Answer: 315 ppm

Question: What about the “Perhydrolase Activity Retained” value ([1]; 50 μg/mL enzyme bound 30 min in 5% TRITON®-X 100) of the same molecule?
Answer: 1540 ppm

Question: And the “Perhydrolase Activity Retained” value ([1]; 50 μg/mL enzyme bound 30 min in 5% TWEEN®-20)?
Answer: 2126 ppm

Question: What about the “ppm PAA” value ([1]; 50 μg/mL, 5% PEG-80 sorbitan laurate pH 6.0, binding 10 min, PAA at 10 minutes) of the same molecule?
Answer: 581 ppm

Question: And the “Perhydrolase Activity Deposited on Hair, ppm PAA” value (“Perhydrolase Activity Deposited” below) ([1]; 50 μg/mL, 5% PEG-80 sorbitan laurate pH 6.0, binding time 0.5 min)?
Answer: 954 ppm

Question: What about the “Perhydrolase Activity Deposited” value ([1]; 50 μg/mL, 5% PEG-80 sorbitan laurate, binding 5 min, pH 4.9) of the same molecule?
Answer: 437 ppm

Question: And the “Perhydrolase Activity Deposited” value ([1]; binding 5 min, pH 5.5)?
Answer: 1312 ppm

Question: What about the “Perhydrolase Activity Deposited” value ([1]; binding 5 min, pH 6.0) of the same molecule?
Answer: 1137 ppm

Question: What about the “Perhydrolase Activity Deposited” value ([1]; binding 5 min, pH 7.0) of the same molecule?
Answer: 385 ppm

Question: And the “values obtained (ABTS assay)” value ([1]; bound in 5% CHEMBETAINE™ CAD)?
Answer: 0.52

Question: What about the “values obtained (ABTS assay)” value ([1]; bound in 5% RHODAPEX® ES-2K) of the same molecule?
Answer: 0.36

Question: And the “values obtained (ABTS assay)” value ([1]; bound in 5% TRITON®-X 100)?
Answer: 1.76

Question: What about the “values obtained (ABTS assay)” value ([1]; bound in 5% TWEEN®-20) of the same molecule?
Answer: 2.43

Question: And the “Perhydrolase Activity Deposited” value ([1]; pH 6.0, binding time 1 min)?
Answer: 962 ppm

Question: What about the “Perhydrolase Activity Deposited” value ([1]; pH 6.0, binding time 2 min) of the same molecule?
Answer: 988 ppm

Question: And the “Perhydrolase Activity Deposited” value ([1]; pH 6.0, binding time 5 min)?
Answer: 1093 ppm

Question: What about the Specific perhydrolase activity ([2]; 1 m Na acetate at pH 5.5 instead of triacetin) of the same molecule?
Answer: The perhydrolase activity of the fusions of the Pseudomonas fluorescens hydrolase was assayed using 1 m Na acetate at pH 5.5 instead of triacetin at pH 7.5 Targeted Perhydrolases HC1121 (C277S-HC263; SEQ ID NO: 288) had no detectable perhydrolase activity with acetate as a substrate.

B2: SEQ ID NO: 323: S54V variant of the aryl esterase from Mycobacterium smegmatis fused to hair binding domain HC263 via a flexible linker (protein)
chain: MAKRILCFGDSLTWGWVPVEDGAPTERFAPDVRWTGVLAQQLGADFEVIEEGLVARTTNIDDPTDPRLNGASYLPSCLATHLPLDLVIIMLGTNDTKAYFRRTPLDIALGMSVLVTQVLTSAGGVGTTYPAPKVLVVSPPPLAPMPHPWFQLIFEGGEQKTTELARVYSALASFMKVPFFDAGSVISTDGVDGIHFTEANNRDLGVALAEQVRSLLGPGSGGAGSPGSAGGPGSPSAQSQLPDKHSGLHERAPQRYGPEPEPEPEPIPEPPKEAPVVIEKPKPKPKPKPKPPAHDHKNQKETHQRHAAGSGGGGSPHHHHHH
Question: Which “ppm PAA” value ([1]; 50 μg/mL, binding 1 min, hair with no PAA treatment) does the source give for B2 here?
Answer: 269 ppm

Question: And the “ppm PAA” value ([1]; 50 μg/mL, binding 1 min, hair with one PAA treatment (0.2% PAA, 1 hr))?
Answer: 526 ppm

Question: And the “ppm PAA” value ([1]; 50 μg/mL, binding 1 min, hair with two PAA treatments)?
Answer: 702 ppm

Question: What about the “OD 405nm” value [1, 3] of the same molecule?
Answer: 0.237

Question: And the Peracetic acid [1, 3]?
Answer: 207 ppm

Question: What about the Specific perhydrolase activity ([2]; triacetin at pH 7.5) of the same molecule?
Answer: 270 µmol/mg/min
